# Measurements as given in US8728472B2, “Antibodies that bind selectively to P25 and uses therefor” (The Board of Regents of the University of Texas System, priority 2009, dated 2014).
# “Also recorded” adds a separate entry of the source.
# How the values were obtained:
# Cdk5/p25 = biological target: T1, Cdk5/p25 (Homo sapiens, UniProt Q15078); assay: Inhibition of Cdk5/p25 kinase activity by monoclonal antibody; type: biochemical; settings: FIG. 4
# T1 construct: cleaves p35, thereby removing the first 100 amino acids to produce p25
# PKA = assay: Effect of monoclonal antibody on PKA activity; type: biochemical; settings: FIG. 4
# p25 [1] = biological target: T2, p25 (Rattus norvegicus, UniProt P61810); assay: Immunoblotting and immunostaining for p25 (p25-GFP lysates, transfected HEK293T cells, ischemic tissue); type: binding; settings: compared with commercial p35/p25 Ab
# T2 construct: cleaves p35, thereby removing the first 100 amino acids to produce p25; expressed in transfected cells; host or cells: HEK293T; also purified Sf9 protein, p25-GFP transgenic mouse striatum, rat ischemic brain and neurons
# From the text: (§1) Cdk5/p25 proteins (FIG. 2A) were co-expressed in Sf9 insect cells from a Baculovirus vector (pBAC4X-1) encoding the genes for the human proteins. […] The proteins were absorbed to a Ni-NTA column, eluted and further purified by FPLC S-sepharose HP column chromatography. Mice received intrasplenic injections of pure Cdk5/p25 conjugated to biodegradable microparticles to optimize antigen presentation. ELISA assays were used to initially screen mice sera for antibody production using pure Cdk5/p25 followed by Western blotting of the pure Cdk5/p25 and striatal cell lysates from a p25 (p25-GFP) over-expressing mouse line (FIG. 2B). When both assays yielded positive results, a hemisplenectomy was performed and B cells were fused with SP2/0-IL6 myeloma cells to make hybridomas. Hybridoma culture supernatants were screened by ELISA, immunoblotting of pure protein (FIG. 2A), and immunohistochemical staining of HEK293T cultured cells transfected with Cdk5, p35, Cdk5/p35, p25, Cdk5/p25, or negative control (blank) eukaryotic expression plasmids (FIG. 2C). Hybridoma lines producing antibodies selective for p25 were re-derived and screens were repeated.
# (§2) Abs to p35, DARPP-32 (Nishi et al., 1997), GFAP, and p25 were used to stain rat coronal cryosections (20 μm) from control and stroked hemispheres. […] See Methods for further details.
# p25 [2] = assay: as above; type: binding
# From the text: as §1, §2
# p35 = biological target: T3, p35 (Mus musculus, UniProt P61809); assay: Immunoblotting and immunostaining for p35; type: binding; settings: immunoblot
# T3 construct: from tissue; host or cells: striatal homogenates of p25-GFP over-expressing mice
# From the text: as §1, §2
# [3] = listed as anti-p25 monoclonal antibody
# T1 sequence (Q15078 99-307 limits assumed): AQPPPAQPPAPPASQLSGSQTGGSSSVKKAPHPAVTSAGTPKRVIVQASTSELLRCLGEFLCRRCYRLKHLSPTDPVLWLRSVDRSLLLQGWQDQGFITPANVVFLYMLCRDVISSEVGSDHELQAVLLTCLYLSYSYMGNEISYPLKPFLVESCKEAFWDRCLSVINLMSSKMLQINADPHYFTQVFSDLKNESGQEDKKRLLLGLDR
# T2 sequence (P61810 99-307): as the sequence (Q15078 99-307 limits assumed) above, with G23V, V35I counted along it
# T3 sequence (P61809 whole entry): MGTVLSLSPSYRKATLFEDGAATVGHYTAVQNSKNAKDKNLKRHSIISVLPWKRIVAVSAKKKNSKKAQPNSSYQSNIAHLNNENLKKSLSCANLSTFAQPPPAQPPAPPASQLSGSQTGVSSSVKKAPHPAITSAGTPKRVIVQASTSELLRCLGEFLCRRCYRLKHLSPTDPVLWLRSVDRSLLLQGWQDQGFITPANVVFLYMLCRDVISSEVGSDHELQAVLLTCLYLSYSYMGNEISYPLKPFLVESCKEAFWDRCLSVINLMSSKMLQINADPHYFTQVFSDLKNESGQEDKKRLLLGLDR
molecule,measurement,setting,value
"1C4: monoclonal antibody binding p25 but not p35, produced by hybridoma cell line 1C4 (ATCC PTA-8555) (antibody, V domains shown) VH: QIQLEESGPELRKPGETVRISCKASGYTFTTAGMQWVQKMPGTGLKWIGWINTHSGVPKYAGEFTGRFDFSLETSASTAYLQIVNLKNEDTATYFCARYGKFGEMDYWGQGTSVTVSS VL: IVMTQSPASLAVSLGQRATISCRSSETVDSDGNSFMHWYQQKPGQSPKLLLYLASTLESGVPARFSGSGSRTDFTLTIDPVEADDAATYYCHQNNEDPTFGGGTKLEIKR",inhibition of Cdk5/p25 activity,Cdk5/p25,almost completely inhibits Cdk5 activity
same,inhibition of Cdk5/p25 activity,Cdk5/p25; [3],inhibits Cdk5/p25 activity
same,effect on PKA activity,PKA,no effect on PKA
same,effect on PKA activity,PKA; [3],little or no effect on PKA activity
same,sensitivity of detection of p25 generated by MCAO,p25 [1],greater sensitivity than a commercial p35/p25 Ab
same,detection of p25,"p25 [2]; immunoblot of lysates from GFP-p25 over-expressing mice, focal ischemia in brain slices and cultured neurons, listed as anti-p25 monoclonal antibody",detects transgenic p25-GFP; also recorded: strongly detects p25 generated in response to focal ischemia
same,staining of cells transfected with expression vectors,"p25 [2]; transfected cells, p25 vs p35 expression vector",only stains cells transfected with an expression vector for p25 but not p35
same,reactivity with p35,p35,does not react with p35 at all
